Data published in patent US11440969B2, “Use of human epididymis protein 4 (HE4) for assessing responsiveness of MUC 16-positive cancer treatment” (Genentech, Inc., priority 2016, dated 2022).
Where “and” joins values, the source holds several entries; their conditions need not be identical. Equal values may be shown once. Entries after “also recorded” stand apart in the source; their conditions may differ.

How the values were obtained:
Type in all cases: in vivo, human
[1] = DMUC5754A pharmacokinetics in patients (total antibody ELISA; acMMAE and unconjugated MMAE LC/MS/MS)
From the text: Pharmacokinetics (PK) of DMUC5754A was characterized following q3w or qlw dosing schedules in both OC and PC patients. Serum or plasma samples at multiple pre-specified time points were quantified for three analytes (unconjugated MMAE, DMUC5754A total antibody, and DMUC5754A conjugate (measured as antibody-conjugated MMAE, acMMAE)). Total antibody (antibody with MMAE-to-antibody ratio equal or greater than zero, including conjugated, partially deconjugated and fully deconjugated antibody) were analyzed using validated enzyme-linked immunosorbent assay methods with the minimum quantifiable concentration of 60 ng/mL. Plasma acMMAE and unconjugated MMAE were determined by using validated LC/MS/MS assays. The lower limit of quantitation (LLOQ) for the acMMAE assay and unconjugated MMAE were 0.359 ng/mL and 0.0359 ng/mL in human plasma, respectively. PK data after Cycle 1, Day 1 dose of DMUC5754A were analyzed with non-compartmental analysis using Phoenix WinNonlin 6.2 (Certara, L. P.), and further evaluated based on dose regimen and cancer type.

[2] = Serum anti-therapeutic antibody (ATA) bridging antibody ELISA; conditions: patients; minimal impact on the exposure
Description: Serum anti-therapeutic antibody (ATA) samples were collected from all treated patients and were analyzed using a validated bridging antibody ELISA. Positive antibody responses were further characterized by competitive binding to determine if the response was primarily directed against the antibody or the linker-drug portion of the ADC.

[3] = test system: unresectable pancreatic cancer; assay: Clinical activity of DMUC5754A (RECIST) in pancreatic cancer patients; conditions: PC patients, 2.4 mg/kg q3w, 10 patients treated
Description: This multicenter, open-label, dose-escalation study was designed to identify the recommended Phase II dose (RP2D) of DMUC5754A in patients with platinum-resistant OC or unresectable pancreatic cancer. In the single-agent dose escalation stage utilizing a 3+3 enrollment scheme, patients were given intravenous DMUC5754A (Genentech Inc.) 0.3-3.2 mg/kg every 3 weeks (q3w) to evaluate the safety, tolerability, and pharmacokinetics of DMUC5754A. Following determination of the maximum tolerated dose (MTD), dose-expansion cohorts were enrolled at the RP2D of 2.4 mg/kg to further characterize the safety and preliminary clinical efficacy of DMUC5754A.
PC patients had histologic documentation of incurable, locally advanced, or metastatic disease for which no standard therapy exists, consisting of unresectable pancreatic ductal adenocarcinoma (i.e., patients with locally advanced or metastatic disease who are not considered eligible for surgical resection with curative intent), including recurrence of previously-resected disease considered unresectable with curative intent. […]
Objective response rate was estimated only for patients with disease that was measurable by RECIST guidelines. Objective response is defined as a complete or partial response, as determined by investigator assessment and confirmed by repeat assessments ≥4 weeks after initial documentation. […]

[4] = Cycle 1, 2.4 mg/kg q3w, OC (n = 29), Mean [SD]
[5] = Cycle 1, 2.4 mg/kg q3w, PC (n = 10), Mean [SD]
[6] = q1w 1st dose, 0.8 mg/kg, OC, N 3
[7] = q1w 1st dose, 1.1 mg/kg, OC, N 7
[8] = q1w 1st dose, 1.4 mg/kg, OC, N 6
[9] = q1w 1st dose, 1.4 mg/kg, PC, N 1
[10] = q1w 1st dose, 1.6 mg/kg, OC, N 4
[11] = q3w 1st cycle, 0.3 mg/kg, OC, N 3
[12] = q3w 1st cycle, 0.6 mg/kg, OC, N 3
[13] = q3w 1st cycle, 1.2 mg/kg, OC, N 3
[14] = q3w 1st cycle, 1.8 mg/kg, OC, N 3
[15] = q3w 1st cycle, 2.4 mg/kg, OC, N 29
[16] = q3w 1st cycle, 2.4 mg/kg, PC, N 10
[17] = q3w 1st cycle, 3.2 mg/kg, OC, N 3

B1: DMUC5754A: antibody-drug conjugate: humanized IgG1 anti-MUC16 monoclonal antibody and MMAE, linked through protease labile linker maleimidocaproyl-valine-citrulline-p-aminobenzyloxycarbonyl (conjugate, chains of the INN, looked up)
VH: EVQLVESGGGLVQPGGSLRLSCAASGYSITNDYAWNWVRQAPGKGLEWVGYISYSGYTTYNPSLKSRFTISRDTSKNTLYLQMNSLRAEDTAVYYCARWTSGLDYWGQGTLVTVSS
VL: DIQMTQSPSSLSASVGDRVTITCKASDLIHNWLAWYQQKPGKAPKLLIYGATSLETGVPSRFSGSGSGTDFTLTISSLQPEDFATYYCQQYWTTPFTFGQGTKVEIK
modifications: MMAE via mc-vc-PABC linker
acMMAE CL [1, 4]: 1.06 ± 0.35 mL/h/kg | acMMAE Vss [1, 4]: 82.1 ± 21.1 mL/kg | acMMAE t1/2 [1, 4]: 5.01 ± 1.45 days | acMMAE Vss [1, 5]: 94.6 [32.4] mL/kg | acMMAE t1/2 [1, 5]: 5.42 [1.91] day | systemic unconjugated MMAE exposure, fold less than acMMAE exposure ([1]; human, in vivo): approximately 100 fold | Total Antibody AUCinf [1, 6]: 33.2 µg·days/mL | Total Antibody Cmax [1, 6]: 13 µg/mL | acMMAE AUCinf [1, 6]: 386 ng·days/mL | acMMAE Cmax [1, 6]: 227 ng/mL | Unconjugated MMAE Cmax ([1]; q1w 1st dose, 0.8 mg/kg, OC, n = 2): 0.00124 µg/mL | Total Antibody AUCinf [1, 7]: 56.1 µg·days/mL | Total Antibody Cmax [1, 7]: 17.7 µg/mL | Unconjugated MMAE Cmax [1, 7]: 0.00323 µg/mL | acMMAE Cmax [1, 7]: 301 ng/mL | acMMAE AUCinf ([1]; q1w 1st dose, 1.1 mg/kg, OC, n = 6): 612 ng·days/mL | Total Antibody AUCinf [1, 8]: 73.0 µg·days/mL | Total Antibody Cmax [1, 8]: 23.9 µg/mL | Unconjugated MMAE Cmax [1, 8]: 0.00373 µg/mL | acMMAE Cmax [1, 8]: 449 ng/mL | acMMAE AUCinf ([1]; q1w 1st dose, 1.4 mg/kg, OC, n = 5): 813 ng·days/mL | Total Antibody AUCinf [1, 9]: 55.7 µg·days/mL | Total Antibody Cmax [1, 9]: 17.3 µg/mL | Unconjugated MMAE Cmax [1, 9]: 0.00759 µg/mL | acMMAE AUCinf [1, 9]: 542 ng·days/mL | acMMAE Cmax [1, 9]: 204 ng/mL | Total Antibody AUCinf [1, 10]: 82.3 µg·days/mL | Total Antibody Cmax [1, 10]: 29.7 µg/mL | Unconjugated MMAE Cmax [1, 10]: 0.00575 µg/mL | acMMAE AUCinf [1, 10]: 957 ng·days/mL | acMMAE Cmax [1, 10]: 539 ng/mL | Total Antibody Cmax [1, 11]: 6.65 µg/mL | Unconjugated MMAE AUCinf [1, 11]: 4.33 ng·days/mL | Unconjugated MMAE Cmax [1, 11]: 0.000675 µg/mL | acMMAE AUCinf [1, 11]: 135 ng·days/mL | acMMAE Cmax [1, 11]: 93.3 ng/mL | Total Antibody AUCinf ([1]; q3w 1st cycle, 0.3 mg/kg, OC, n = 2): 13.1 µg·days/mL | Total Antibody AUCinf [1, 12]: 29.5 µg·days/mL | Total Antibody Cmax [1, 12]: 16.6 µg/mL | Unconjugated MMAE AUCinf [1, 12]: 10.3 ng·days/mL | Unconjugated MMAE Cmax [1, 12]: 0.00203 µg/mL | acMMAE AUCinf [1, 12]: 310 ng·days/mL | acMMAE Cmax [1, 12]: 226 ng/mL | Total Antibody AUCinf [1, 13]: 81.8 µg·days/mL | Total Antibody Cmax [1, 13]: 22.5 µg/mL | Unconjugated MMAE AUCinf [1, 13]: 19.2 ng·days/mL | Unconjugated MMAE Cmax [1, 13]: 0.00284 µg/mL | acMMAE AUCinf [1, 13]: 715 ng·days/mL | acMMAE Cmax [1, 13]: 337 ng/mL | Total Antibody AUCinf [1, 14]: 106.0 µg·days/mL | Total Antibody Cmax [1, 14]: 35.5 µg/mL | Unconjugated MMAE AUCinf [1, 14]: 33.1 ng·days/mL | Unconjugated MMAE Cmax [1, 14]: 0.0047 µg/mL | acMMAE AUCinf [1, 14]: 1050 ng·days/mL | acMMAE Cmax [1, 14]: 618 ng/mL | Total Antibody AUCinf [1, 15]: 178.0 µg·days/mL | Total Antibody Cmax [1, 15]: 42.2 µg/mL | Unconjugated MMAE Cmax [1, 15]: 0.00677 µg/mL | acMMAE AUCinf [1, 15]: 1850 ng·days/mL | acMMAE Cmax [1, 15]: 860 ng/mL and 860 [216] ng/mL | Unconjugated MMAE AUCinf ([1]; q3w 1st cycle, 2.4 mg/kg, OC, n = 28): 55.5 ng·days/mL | Total Antibody AUCinf [1, 16]: 167.0 µg·days/mL | Total Antibody Cmax [1, 16]: 38.9 µg/mL | Unconjugated MMAE AUCinf [1, 16]: 63.6 ng·days/mL | Unconjugated MMAE Cmax [1, 16]: 0.0077 µg/mL | acMMAE AUCinf [1, 16]: 1680 ng·days/mL | acMMAE Cmax [1, 16]: 737 ng/mL and 737 [115] ng/mL | Total Antibody AUCinf [1, 17]: 324.0 µg·days/mL | Total Antibody Cmax [1, 17]: 71.4 µg/mL | Unconjugated MMAE Cmax [1, 17]: 0.02 µg/mL | acMMAE AUCinf [1, 17]: 3380 ng·days/mL | acMMAE Cmax [1, 17]: 1220 ng/mL | Unconjugated MMAE AUCinf ([1]; q3w 1st cycle, 3.2 mg/kg, OC, n = 1): 111 ng·days/mL | increase of exposure of acMMAE or total antibody (Cmax or AUCinf, Cycle 1) with dose ([1]; q3w and q1w cohorts, 0.3-3.2 mg/kg, nonlinear PK): not dose proportional | immunogenicity rate [2]: 14.1% | radiographic responses [3]: No patients; also recorded: no radiologic responses
